Blank lines part the entries; values can stand above or below the binder they belong to.
What was measured:
4H390-AA = biological target: T1, 4H390-AA; assay: two-hybrid library CCmax; details: mean of both orientations;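 note: natural log of median RNA to DNA barcode read ratio; higher means stronger binding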
T1 chain: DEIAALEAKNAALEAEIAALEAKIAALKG

4H2512-AA = biological target: T2, 4H2512-AA; assay: two-hybrid library CCmax; details: mean of both orientations;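 note: natural log of median RNA to DNA barcode read ratio; higher means stronger binding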
T2 chain: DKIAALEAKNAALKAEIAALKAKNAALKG

4H775-AA = biological target: T3, 4H775-AA; assay: two-hybrid library CCmax;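 note: natural log of median RNA to DNA barcode read ratio; higher means stronger binding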
T3 chain: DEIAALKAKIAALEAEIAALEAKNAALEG

4H2873-AA = biological target: T4, 4H2873-AA; assay: two-hybrid library CCmax; details: mean of both orientations;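 note: natural log of median RNA to DNA barcode read ratio; higher means stronger binding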
T4 chain: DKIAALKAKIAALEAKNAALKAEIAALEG

4H2687-AA = biological target: T5, 4H2687-AA; assay: two-hybrid library CCmax; details: mean of both orientations;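 note: natural log of median RNA to DNA barcode read ratio; higher means stronger binding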
T5 chain: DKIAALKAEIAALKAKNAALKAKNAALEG

4H2758-AA = biological target: T6, 4H2758-AA; assay: two-hybrid library CCmax; details: mean of both orientations;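 note: natural log of median RNA to DNA barcode read ratio; higher means stronger binding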
T6 chain: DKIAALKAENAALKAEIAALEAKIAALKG

4H233-AA = biological target: T7, 4H233-AA; assay: two-hybrid library CCmax; details: mean of both orientations
T7 chain: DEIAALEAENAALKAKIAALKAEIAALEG

4H278-AA = biological target: T8, 4H278-AA; assay: two-hybrid library CCmax; details: mean of both orientations
T8 chain: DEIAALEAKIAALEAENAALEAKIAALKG

4H3625-AA = biological target: T9, 4H3625-AA; assay: two-hybrid library CCmax; details: mean of both orientations
T9 chain: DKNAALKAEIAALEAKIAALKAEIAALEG

4H3940-AA = biological target: T10, 4H3940-AA; assay: two-hybrid library CCmax; details: mean of both orientations
T10 chain: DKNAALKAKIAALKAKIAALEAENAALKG

4H2985-AA = biological target: T11, 4H2985-AA; assay: two-hybrid library CCmax; details: mean of both orientations
T11 chain: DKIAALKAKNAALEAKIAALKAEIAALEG

4H87-AA = biological target: T12, 4H87-AA; assay: two-hybrid library CCmax; details: mean of both orientations
T12 chain: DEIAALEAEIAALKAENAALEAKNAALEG

4H3134-AA = biological target: T13, 4H3134-AA; assay: two-hybrid library CCmax; details: mean of both orientations
T13 chain: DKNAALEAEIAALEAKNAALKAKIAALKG

4H2646-AA = biological target: T14, 4H2646-AA; assay: two-hybrid library CCmax; details: mean of both orientations
T14 chain: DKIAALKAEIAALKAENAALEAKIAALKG

4H2705-AA = biological target: T15, 4H2705-AA; assay: two-hybrid library CCmax; details: mean of both orientations
T15 chain: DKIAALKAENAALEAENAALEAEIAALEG

4H816-AA = biological target: T16, 4H816-AA; assay: two-hybrid library CCmax; details: mean of both orientations
T16 chain: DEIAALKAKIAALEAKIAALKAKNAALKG

4H510-AA = biological target: T17, 4H510-AA; assay: two-hybrid library CCmax; details: mean of both orientations
T17 chain: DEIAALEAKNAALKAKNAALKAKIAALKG

4H2187-AA = biological target: T18, 4H2187-AA; assay: two-hybrid library CCmax
T18 chain: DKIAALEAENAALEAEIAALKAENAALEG

4H3409-AA = biological target: T19, 4H3409-AA; assay: two-hybrid library CCmax; details: mean of both orientations
T19 chain: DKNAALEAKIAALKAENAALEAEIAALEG

4H796-bA = biological target: T20, 4H796-bA; assay: two-hybrid library CCNG1
T20 chain: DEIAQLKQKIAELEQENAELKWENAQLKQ

4H264-bA = biological target: T21, 4H264-bA; assay: two-hybrid library CCNG1
T21 chain: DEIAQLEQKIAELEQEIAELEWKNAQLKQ

4H3041-bA = biological target: T22, 4H3041-bA; assay: two-hybrid library CCNG1
T22 chain: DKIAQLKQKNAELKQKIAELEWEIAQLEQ

4H2585-bA = biological target: T23, 4H2585-bA; assay: two-hybrid library CCNG1
T23 chain: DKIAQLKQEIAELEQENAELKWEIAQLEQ

4H2760-bA = biological target: T24, 4H2760-bA; assay: two-hybrid library CCNG1
T24 chain: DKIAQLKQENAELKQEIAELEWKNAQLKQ

4H3297-bA = biological target: T25, 4H3297-bA; assay: two-hybrid library CCNG1
T25 chain: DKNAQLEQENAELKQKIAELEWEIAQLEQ

4H2859-bA = biological target: T26, 4H2859-bA; assay: two-hybrid library CCNG1
T26 chain: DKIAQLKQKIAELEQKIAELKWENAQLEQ

4H56-bA = biological target: T27, 4H56-bA; assay: two-hybrid library CCNG1
T27 chain: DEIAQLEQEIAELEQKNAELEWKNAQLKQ

4H3381-bA = biological target: T28, 4H3381-bA; assay: two-hybrid library CCNG1
T28 chain: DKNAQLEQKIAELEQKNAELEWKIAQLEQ

4H3364-bA = biological target: T29, 4H3364-bA; assay: two-hybrid library CCNG1
T29 chain: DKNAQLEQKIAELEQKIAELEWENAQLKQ

4H730-bA = biological target: T30, 4H730-bA; assay: two-hybrid library CCNG1
T30 chain: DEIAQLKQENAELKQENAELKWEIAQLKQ

4H932-bA = biological target: T31, 4H932-bA; assay: two-hybrid library CCNG1
T31 chain: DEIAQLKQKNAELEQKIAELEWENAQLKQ

4H2931-bA = biological target: T32, 4H2931-bA; assay: two-hybrid library CCNG1
T32 chain: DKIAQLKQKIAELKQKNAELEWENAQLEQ

4H349-bA = biological target: T33, 4H349-bA; assay: two-hybrid library CCNG1
T33 chain: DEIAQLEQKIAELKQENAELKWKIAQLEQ

4H2444-bA = biological target: T34, 4H2444-bA; assay: two-hybrid library CCNG1
T34 chain: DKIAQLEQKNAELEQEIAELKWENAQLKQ

4H235-bA = biological target: T35, 4H235-bA; assay: two-hybrid library CCNG1
T35 chain: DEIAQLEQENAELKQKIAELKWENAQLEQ

4H949-bA = biological target: T36, 4H949-bA; assay: two-hybrid library CCNG1
T36 chain: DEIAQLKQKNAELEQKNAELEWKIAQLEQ

4H2518-bA = biological target: T37, 4H2518-bA; assay: two-hybrid library CCNG1
T37 chain: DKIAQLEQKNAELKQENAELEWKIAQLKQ

4H2253-bA = biological target: T38, 4H2253-bA; assay: two-hybrid library CCNG1
T38 chain: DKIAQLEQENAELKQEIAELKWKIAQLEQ

P6bH1 = biological target: T39, P6bH1; assay: two-hybrid library CCNG1
T39 chain: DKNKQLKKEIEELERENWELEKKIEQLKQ

- interaction score (4H390-AA): 0.639
- interaction score (4H2512-AA): 2.24
- interaction score (4H775-AA): -1.71
- interaction score (4H2873-AA): 0.406
- interaction score (4H2687-AA): -0.754
- interaction score (4H2758-AA): 0.853
- interaction score (4H233-AA): -0.428
- interaction score (4H278-AA): -0.772
- interaction score (4H3625-AA): -1.12
- interaction score (4H3940-AA): -1.38
- interaction score (4H2985-AA): -0.684
- interaction score (4H87-AA): -2.2
- interaction score (4H3134-AA): 1.47
- interaction score (4H2646-AA): -1.38
- interaction score (4H2705-AA): -1.68
- interaction score (4H816-AA): -0.683
- interaction score (4H510-AA): 0.192
- interaction score (4H2187-AA): -0.477
- interaction score (4H3409-AA): -1.46
Binder: DKIAALEAENAALEAEIAALKAENAALEG [4H2187-AA]

- interaction score (4H796-bA): -1.65
- interaction score (4H264-bA): -0.996
- interaction score (4H3041-bA): 0.651
- interaction score (4H2585-bA): -0.557
- interaction score (4H2760-bA): 0.778
- interaction score (4H3297-bA): 0.145
- interaction score (4H2859-bA): -0.839
- interaction score (4H56-bA): -0.0723
- interaction score (4H3381-bA): -0.743
- interaction score (4H3364-bA): -0.504
- interaction score (4H730-bA): -0.707
- interaction score (4H932-bA): -0.529
- interaction score (4H2931-bA): -0.566
- interaction score (4H349-bA): -0.459
- interaction score (4H2444-bA): 0.026
- interaction score (4H235-bA): 0.641
- interaction score (4H949-bA): -0.968
- interaction score (4H2518-bA): 0.247
- interaction score (4H2253-bA): 1.28
- interaction score (P6bH1): -1.05
Binder: DKIAQLEQENAELKQEIAELKWKIAQLEQ [4H2253-bA]

— PMC10397247
